From paper PMC12676778, “Long-tailed class I myosins rely on tail-mediated phosphoinositide recognition for specific membrane recruitment” (Cell Communication and Signaling : CCS, 2025)
pKd: −log10 of the molar value.

Columns and labels:
microtubules [1] = target: microtubules (UniProt P02550)
microtubules [2] = target: microtubules (UniProt P02550); remark: listed apart in the source
F-actin = F-actin (UniProt P68135); assay: co-sedimentation; YFP fluorescence of pellet and supernatant; increasing F-actin concentrations; 5 mM Tris pH 7.4, 100 mM KCl, 0.04% NaN3, 2 mM MgCl2; 20,000 g, 30 min, 4 °C

Sequence of microtubules (P02550 whole entry, chain 1 of 2): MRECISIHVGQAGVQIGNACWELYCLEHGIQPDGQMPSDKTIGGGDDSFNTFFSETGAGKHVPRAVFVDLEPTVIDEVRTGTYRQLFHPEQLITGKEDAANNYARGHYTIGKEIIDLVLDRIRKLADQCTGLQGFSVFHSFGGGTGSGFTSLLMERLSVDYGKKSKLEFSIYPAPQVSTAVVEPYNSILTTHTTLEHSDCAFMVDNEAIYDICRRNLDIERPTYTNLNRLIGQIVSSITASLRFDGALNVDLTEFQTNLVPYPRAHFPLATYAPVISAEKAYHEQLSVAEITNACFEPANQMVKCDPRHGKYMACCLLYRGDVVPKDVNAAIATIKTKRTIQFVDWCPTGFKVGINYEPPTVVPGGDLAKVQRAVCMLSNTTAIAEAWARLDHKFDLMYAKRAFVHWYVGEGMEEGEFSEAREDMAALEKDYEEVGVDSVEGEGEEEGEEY
Sequence of microtubules (P02554 whole entry, chain 2 of 2, further chain): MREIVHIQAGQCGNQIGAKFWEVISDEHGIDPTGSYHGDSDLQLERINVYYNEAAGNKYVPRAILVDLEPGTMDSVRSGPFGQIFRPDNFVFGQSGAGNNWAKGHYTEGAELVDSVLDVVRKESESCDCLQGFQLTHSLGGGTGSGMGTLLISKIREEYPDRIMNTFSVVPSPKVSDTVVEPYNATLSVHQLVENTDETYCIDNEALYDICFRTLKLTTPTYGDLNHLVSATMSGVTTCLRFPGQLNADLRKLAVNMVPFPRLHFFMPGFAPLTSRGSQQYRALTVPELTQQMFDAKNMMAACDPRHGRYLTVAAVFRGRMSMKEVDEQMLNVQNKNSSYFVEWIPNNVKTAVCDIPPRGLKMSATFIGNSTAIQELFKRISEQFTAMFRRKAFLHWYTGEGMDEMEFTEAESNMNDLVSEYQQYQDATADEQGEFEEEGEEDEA

myosin-1D tail (amino acids 717–1113) (domain or fragment)
inhibition of the cold-induced depolymerization of microtubules, IC50 (microtubules [1]): 15 nM
cold-induced depolymerization assays of microtubules, IC50 (microtubules [2]): 20 nM
pKd (F-actin): 4.92
